Reference: the RNAGym collection of RNA variant scans (doi:10.7554/elife.90254)

B1: OR4K15 (parent)
chain: GUUAACGGUCAUAGGCCAUGGAAACUAGGAGCACCAUUUCGCUGCCAGUGAAGAAAUGAACAAAGAAAAUCUGGGCCAGGCAGGCAUCAAAAGAAAUAGUCUUGCGCUCAACCAGAAAGUCUGUAAUCAUUUUAAGGGUA

Variants of: B1
Experiment: self-cleavage, relative activity (ratio to wild type); higher = more cleavage; in vitro, sequencing; the parent is a self-cleaving ribozyme

Row | Variant | self-cleavage
1 | A96G G137U | 1.8
2 | A96G U132A | 1.37
3 | A90G G123A | 0.48
4 | A92U A129G | 1.13
5 | A92U A129U | 1
6 | A96G C107A | 0.01
7 | A91G A98G | 0.26
8 | A96U U127A | 2.6
9 | A89U U130C | 1.2
10 | A94G U127G | 1.87
11 | A94G U127C | 1.04
12 | A94G U127A | 2.55
13 | U97A U127C | 1.36
14 | A95U A126G | 1.55
15 | A95C G137U | 1.17
16 | A92G U127A | 2.33
17 | A92G A114C | 0.04
18 | A95G U108C | 0.01
19 | A92G G106U | 0.01
20 | A92G G106A | 0.02
21 | A90U A129U | 1.29
22 | A90G U127C | 0.13
23 | A91C U124C | 1.67
24 | A94U U124C | 1.66

Row | Variant | self-cleavage
25 | A96G A135U | 2.17
26 | A96G A135G | 1.91
27 | A94U U130C | 1.01
28 | A92U G104A | 0.01
29 | A92G C105U | 0.08
30 | A91U U100C | 2.82
31 | A91U U100A | 0.57
32 | A91G U102C | 1.94
33 | A95C | 1.06
34 | A95G | 1.85
35 | A95U | 1.65
36 | A91G U127C | 0.78
37 | A91G U127A | 2.67
38 | A92G A126U | 0.78
39 | A92G A126G | 1.18
40 | A90G A125G | 0.23
41 | A94U U120C | 1.1
42 | A96G A118G | 1.4
43 | A95C U103C | 1.28
44 | A95G A129G | 2.42
45 | A96G A114U | 0.07
46 | A90U A98U | 2.21
47 | A92G U139A | 2.12
48 | A92G U139G | 1.3

Row | Variant | self-cleavage
49 | A91G U108C | 0.02
50 | A92C G115A | 0.36
51 | A90G A117G | 0.83
52 | A90G A117U | 1.07
53 | A90G U124C | 0.78
54 | A94G U131A | 0.74
55 | A94G U131C | 0.66
56 | A96U G99A | 0.44
57 | U97A U122C | 1.83
58 | A91U U103C | 0.51
59 | A96G A126G | 1.01
60 | A90G A110G | 0.1
61 | A94C U131C | 0.24
62 | A95G U100A | 1.26
63 | A95G U100C | 2.52
64 | A96G U139C | 1.42
65 | A94G A125G | 0.75
66 | A95G A118U | 1.09
67 | A95G A118G | 0.75
68 | A91G A94G | 0.83
69 | A91G A94U | 1.02
70 | A92G U122C | 1.19
71 | A90G A140G | 0.65
72 | A90G A140U | 0.74

Row | Variant | self-cleavage
73 | U97A U130C | 1.59
74 | A89U U103C | 1.12
75 | A95G C109A | 0.78
76 | A91G A92G | 0.51
77 | A91G A92C | 0.76
78 | A91G A92U | 1.43
79 | A95G A96C | 0.77
80 | A95G A96G | 1.25
81 | A96G G106A | 0.01
82 | A94C U103C | 0.38
83 | A96U A114G | 0.85
84 | A90G U122C | 0.65
85 | A91G U131C | 1.07
86 | A94U U97G | 1.52
87 | A94U U97C | 1.31
88 | A90G A91G | 0.55
89 | U97C A116G | 0.77
90 | A92G A140G | 1.69
91 | G93U G123A | 0.77
92 | A90U U122C | 2.2
93 | G93U | 1.83
94 | G93A | 2.17
95 | A96C A111G | 0.03
96 | A90U A110G | 0.08

Row | Variant | self-cleavage
97 | A90U A110U | 0.89
98 | A96G A129U | 1.08
99 | A96G A129G | 1.11
100 | A95G A140G | 1.73
101 | A95G A140U | 2.09
102 | A94C A126G | 0.79
103 | A94U A117U | 0.82
104 | A94U A117G | 1.95
105 | A96G U108C | 0.01
106 | A96G U108A | 0.02
107 | A94G A134G | 1.03
108 | A92G A125U | 1.59
109 | A92G A125G | 0.79
110 | A90C U120A | 1.88
111 | A95G U124A | 0.8
112 | A95G U124C | 1.85
113 | A91C A117G | 2.03
114 | A96U U122C | 1.54
115 | A91G A117U | 0.69
116 | A91G A118G | 0.94
117 | A95U U103A | 0.6
118 | A94G U108G | 0.07
119 | A94G U108C | 0.01
120 | A92U C112U | 0.01

Row | Variant | self-cleavage
121 | U97A A135G | 1.79
122 | A95C A140G | 0.98
123 | A90U U120A | 1.85
124 | A90U U120C | 1.63
125 | A94U A96G | 1.29
126 | A92G A111G | 0.02
127 | A91G A135U | 1.25
128 | A96C C109U | 0.21
129 | A90U U103A | 0.34
130 | A91G A110U | 0.36
131 | A95G A126U | 1.42
132 | A91U A94U | 1.87
133 | A92G A129U | 1.16
134 | A92G A129C | 0.59
135 | A92G A135G | 1.48
136 | A92G A135C | 0.84
137 | A94G U97A | 2.02
138 | A96G U124A | 0.94
139 | A90G A134U | 1.49
140 | A90G A134G | 1.35
141 | A91U A129G | 1.13
142 | A90G A96G | 1.25
143 | A90G A96U | 1.79
144 | A95G U130C | 1.89

Row | Variant | self-cleavage
145 | A89U U133C | 1.97
146 | A91U U120C | 1.64
147 | A91G G106A | 0.01
148 | A94G A135G | 0.43
149 | U97A C101U | 0.49
150 | A92C U131C | 1.35
151 | A92U U127A | 1.77
152 | A92G A96U | 1.84
153 | A92G A96G | 0.99
154 | A90U G106A | 0
155 | U97C A110G | 0.11
156 | A96U A117G | 1.75
157 | A91G U100C | 2.19
158 | A92G U124C | 1
159 | A89U U139A | 1.49
160 | A95G U103A | 1.55
161 | A95G G115A | 0.19
162 | A90U G99A | 0.52
163 | A94U U108C | 0.02
164 | A94G C107G | 0.01
165 | A92G U103A | 0.8
166 | A95G U122A | 1.78
167 | A95G U122C | 1.2
